The text below walks through data of US9616101B2, “Differentiation marker and differentiation control of eye cell” (Kyoto Prefectural Public University Corporation, priority 2012, dated 2017).

For assay [1], the system named is cultured monkey corneal endothelial cell. The assay is described as follows: Cell density measurement (Konan KSS-400EB) after R-spondin 1 addition. The format is cell-based, cynomolgus monkey. The following applies: 10 ng/ml or 50 ng/ml R-spondin 1; 48 hours after addition. The method, then:
A cultured monkey corneal endothelial cell (Lot. 20111222-4 P2) was treated with 0.05% trypsin at 37° C. for 10 minutes, peeled from a T-25 flask, and suspended in a culture medium (10% FBS+bFGF/DMEM). The number of cells was counted, and the suspension was adjusted with a culture medium to 3×10^4 cells/300 μl. Cells were seeded on a Lab-TekII chamber Slide (8 well) coated with FNS, in 300 μl/well.
At 7 days after cell seeding, a medium was exchanged with a medium containing R-spondin 1 (0, 10, 50 ng/ml) in the state where cells were almost confluent, and at 24 hours after addition of R-spondin 1, Click-iT EdU was added so that the final concentration was 10 μM. (Although a manual of Kit recommended that a half of a medium was exchanged, a medium was not exchanged) After additional 24 hours (48 hours after addition of R-spondin 1), cells were fixed with 4% PFA/PBS, EdU was detected according to a manual of Kit, and the EdU-positive cell rate was counted (FIGS. 8 and 9).
A chamber slide after staining was photographed with a phase contrast microscope, and the cell density was measured using the corneal endothelial cell density calculating software, Konan Storage System KSS-400EB (FIG. 10).

The subject of assay [2] is corneal endothelial cell of rabbit sclerocorneal section. Nature of the assay: Organ culture of rabbit sclerocorneal section with R-spondin 1: corneal endothelial cell density (ZO-1). The assay is classed as cell-based, white rabbit. The note with it: control 3674. The procedure:
Eyeballs of white rabbit (Nacalai) euthanized for another object were purchased, and a sclerocorneal section was prepared. The sclerocorneal section was cultured in an incubator at 37° C. for 1 week in DMEM (INVITROGEN, catalog No.: 12320) and 10% fetal bovine serum (FBS) (BIOWEST, catalog No.: 51820-500). […] A corneal endothelial cell was subjected to nuclear staining with DAPI, and the Ki67-positive cell rate was calculated. In addition, a corneal endothelial cell was immunostained with ZO-1, and the cell density was calculated.

B1: R-spondin 1: Recombinant Human R-spondin 1 (R&D Cat. 4645-RS); ligand of GPR49/LGR5 (protein, listed as Homo sapiens)
chain: MRLGLCVVALVLSWTHLTISSRGIKGKRQRRISAEGSQACAKGCELCSEVNGCLKCSPKLFILLERNDIRQVGVCLPSCPPGYFDARNPDMNKCIKCKIEHCEACFSHNFCTKCKEGLYLHKGRCYPACPEGSSAANGTMECSSPAQCEMSEWSPWGPCSKKQQLCGFRRGSEERTRRVLHAPVGDHAACSDTKETRRCTVRRVPCPEGQKRRKGGQGRRENANRNLARKESKEAGAGSRRRKGQQQQQQQGTVGPLTSAGPA
For the molecule B1, the “cell density as compared with a control” value in assay [1] is given as 1.3 times. Besides, the “corneal endothelial cell density” value amounted to 4314 cells/mm^2 in assay [2] (1 ng/ml R-spondin 1, 1 week); 4626 cells/mm^2 in assay [2] (10 ng/ml R-spondin 1, 1 week); 5037 cells/mm^2 in assay [2] (100 ng/ml R-spondin 1, 1 week).
